# Patent publication US20230212549A1 (3B PHARMACEUTICALS, published 2023)
# Several values for one entry are separate records, joined by “and”; a condition that tells them apart may be missing. Identical values can stand only once. Numbered stars: 1 amine (or outer) side, 2 acyl side, 3 side chain; on linkers, the order of the positions; unused ones are H or OH. Bridge positions count the residues as written; N and C are the ends. Square brackets hold non-standard residues; d marks the D form. Primed or numbered codes have the meaning given here. * marks the point of attachment. tMeBn(LuDOTA-AET) = 1,3,5-trimethylbenzylidene (from 1,3,5-tris(bromomethyl)benzene) bridge with two thioethers to the Cys, its third CH2 carries AET (2-aminoethanethiol, attached through S), whose amine is acylated by DOTA complexing lutet, O=C([O-])CN1CCN(CC(=O)[O-])CCN(CC(=O)NCCSCc2cc(C[*:1])cc(C[*:2])c2)CCN(CC(=O)[O-])CC1.[Lu+3]; tMeBn(DOTA-PP) = 1,3,5-trimethylbenzylidene, two thioethers to Cys, third CH2 bound to one N of piperazine whose other N bears DOTA, O=C(O)CN1CCN(CC(=O)O)CCN(CC(=O)N2CCN(Cc3cc(C[*:1])cc(C[*:2])c3)CC2)CCN(CC(=O)O)CC1; tMeBn(DOTA-AET) = 1,3,5-trimethylbenzylidene (from 1,3,5-tris(bromomethyl)benzene), two thioethers to Cys, third CH2 bears 2-aminoethanethiol via S, its amine acylated by DOTA; Ttds″ = 1,13-diamino-4,7,10-trioxatridecan-succinamic acid spacer, O=C(CCC(=O)[*:2])NCCCOCCOCCOCCCN[*:1]; Ttds = 1,13-diamino-4,7,10-trioxatridecan-succinamic acid, O=C(CCC(=O)[*:2])NCCCOCCOCCOCCCN[*:1]; 3MeBn = 3-Methylbenzylidene (m-xylylene thioether bridge from α,α′-dibromo-m-xylene); Opc = (S)-N-(pyrazinylcarbonyl)-ornithine, O=C(NCCC[C@H](N[*:1])C(=O)[*:2])c1cnccn1; N4Ac = 6-Carboxy-1,4,8,11-tetraazaundecane, an N4-chelator, NCCNCC(CNCCN)C(=O)*; 3MeBn(3) = 3-methylbenzylidene (m-xylylene), from α,α′-dibromo-m-xylene; DOTA = O=C(O)CN1CCN(CC(=O)O)CCN(CC(=O)*)CCN(CC(=O)O)CC1; Pro(trans-4-Ph) = O=C(O)[C@@H]1C[C@@H](c2ccccc2)CN1; mXylylene = c1cc(C[*:1])cc(C[*:2])c1; AF488 = Alexa Fluor 488 label; Pen = CC(C)(S)[C@H](N)C(=O)O; AGLU′ = not defined here; Nle = CCCC[C@H](N)C(=O)O; Hexanoyl = CCCCCC(=O)*; Ahx = NCCCCCC(=O)O; GABA = NCCCC(=O)O
# T1: recombinant human PREP (R&D systems, #4308-SE) (human, UniProt P48147 1-710)
# T1 sequence: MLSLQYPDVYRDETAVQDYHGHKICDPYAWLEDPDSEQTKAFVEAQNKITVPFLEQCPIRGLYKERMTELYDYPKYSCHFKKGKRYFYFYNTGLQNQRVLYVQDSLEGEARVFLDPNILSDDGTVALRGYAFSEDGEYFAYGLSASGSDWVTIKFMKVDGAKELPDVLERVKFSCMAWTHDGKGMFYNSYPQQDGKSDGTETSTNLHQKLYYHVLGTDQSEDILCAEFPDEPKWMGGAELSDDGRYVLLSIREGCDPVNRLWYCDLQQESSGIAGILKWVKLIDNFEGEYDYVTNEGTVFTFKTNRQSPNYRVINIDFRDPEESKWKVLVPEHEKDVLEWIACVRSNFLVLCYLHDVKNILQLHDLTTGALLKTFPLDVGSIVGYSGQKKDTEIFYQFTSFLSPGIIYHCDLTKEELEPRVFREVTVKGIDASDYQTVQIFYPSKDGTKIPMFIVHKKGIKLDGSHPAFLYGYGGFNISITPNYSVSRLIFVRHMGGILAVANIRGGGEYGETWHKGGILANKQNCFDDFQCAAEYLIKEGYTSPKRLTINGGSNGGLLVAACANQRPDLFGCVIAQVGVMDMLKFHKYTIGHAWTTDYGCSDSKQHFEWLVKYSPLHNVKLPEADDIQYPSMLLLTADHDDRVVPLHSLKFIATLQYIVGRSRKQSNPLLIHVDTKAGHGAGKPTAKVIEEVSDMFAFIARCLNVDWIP
# B1: N4Ac-Glu(AGLU′)-Glu(AGLU′)-Ttds-Nle-[Cys-(3MeBn)-Pro-Pro-Thr-Glu-Phe-Cys]-OH (peptide)
# peptide: N4Ac-E(AGLU′)E(AGLU′)[Ttds″][Nle]CPPTEFC-OH
# modifications: linker 5-11 via 3MeBn(3); reading uncertain; also: printed as N4Ac-Glu(AGLU′)-Glu(AGLU′)-Ttds-Nle-[Cys-(3MeBn)-Pro-Pro-Thr-Glu-Phe-Cys]-OH
# notes: also called 3BP-4266
# B2: H-Ahx-Ttds-Nle-[Cys-(tMeBn(DOTA-PP))-Pro-Pro-Thr-Gln-Phe-Cys]-Asp-NH2 (peptide)
# peptide: H-[Ahx][Ttds][Nle]CPPTQFCD-NH2
# modifications: linker 4-10 via tMeBn(DOTA-PP)
# SMILES: CCCC[C@H](NC(=O)CCC(=O)NCCCOCCOCCOCCCNC(=O)CCCCCN)C(=O)N[C@H]1CSCc2cc(cc(CN3CCN(C(=O)CN4CCN(CC(=O)O)CCN(CC(=O)O)CCN(CC(=O)O)CC4)CC3)c2)CSC[C@@H](C(=O)N[C@@H](CC(=O)O)C(N)=O)NC(=O)[C@H](Cc2ccccc2)NC(=O)[C@H](CCC(N)=O)NC(=O)[C@H]([C@@H](C)O)NC(=O)[C@@H]2CCCN2C(=O)[C@@H]2CCCN2C1=O
# notes: also called 3BP-4004
# B3: Hex-[Cys(3MeBn)-Pro-Pro-Thr-Gln-Phe-Cys]-Asp-NH2 (peptide)
# peptide: Hexanoyl-CPPTQFCD-NH2
# modifications: linker 1-7 via mXylylene
# SMILES: CCCCCC(=O)N[C@H]1CSCc2cccc(c2)CSC[C@@H](C(=O)N[C@@H](CC(=O)O)C(N)=O)NC(=O)[C@H](Cc2ccccc2)NC(=O)[C@H](CCC(N)=O)NC(=O)[C@H]([C@@H](C)O)NC(=O)[C@@H]2CCCN2C(=O)[C@@H]2CCCN2C1=O
# B4: Hex-[Cys(tMeBn(DOTA-PP))-Pro-Pro-Thr-Gln-Phe-Cys]-Asp-NH2 (peptide)
# peptide: Hexanoyl-CPPTQFCD-NH2
# modifications: linker 1-7 via tMeBn(DOTA-PP)
# SMILES: CCCCCC(=O)N[C@H]1CSCc2cc(cc(CN3CCN(C(=O)CN4CCN(CC(=O)O)CCN(CC(=O)O)CCN(CC(=O)O)CC4)CC3)c2)CSC[C@@H](C(=O)N[C@@H](CC(=O)O)C(N)=O)NC(=O)[C@H](Cc2ccccc2)NC(=O)[C@H](CCC(N)=O)NC(=O)[C@H]([C@@H](C)O)NC(=O)[C@@H]2CCCN2C(=O)[C@@H]2CCCN2C1=O
# B5: Hex-[Cys(3MeBn)-Pro-Pro-Opc-Glu-Phe-Cys]-NH2 (peptide)
# peptide: Hexanoyl-CPP[Opc]EFC-NH2
# modifications: linker 1-7 via mXylylene
# SMILES: CCCCCC(=O)N[C@H]1CSCc2cccc(c2)CSC[C@@H](C(N)=O)NC(=O)[C@H](Cc2ccccc2)NC(=O)[C@H](CCC(=O)O)NC(=O)[C@H](CCCNC(=O)c2cnccn2)NC(=O)[C@@H]2CCCN2C(=O)[C@@H]2CCCN2C1=O
# notes: also called 3BP-3355
# B6: Hex-[Cys(3MeBn)-Pro-Pro-Thr-Glu-Phe-Pen]-NH2 (peptide)
# peptide: Hexanoyl-CPPTEF[Pen]-NH2
# modifications: linker 1-7 via mXylylene
# SMILES: CCCCCC(=O)N[C@H]1CSCc2cccc(c2)CSC(C)(C)[C@@H](C(N)=O)NC(=O)[C@H](Cc2ccccc2)NC(=O)[C@H](CCC(=O)O)NC(=O)[C@H]([C@@H](C)O)NC(=O)[C@@H]2CCCN2C(=O)[C@@H]2CCCN2C1=O
# notes: also called 3BP-3351
# B7: Hex-[Cys(3MeBn)-Pro-Eay-Thr-Glu-Phe-Cys]-NH2 (peptide)
# peptide: Hexanoyl-CP[Pro(trans-4-Ph)]TEFC-NH2
# modifications: linker 1-7 via mXylylene
# SMILES: CCCCCC(=O)N[C@H]1CSCc2cccc(c2)CSC[C@@H](C(N)=O)NC(=O)[C@H](Cc2ccccc2)NC(=O)[C@H](CCC(=O)O)NC(=O)[C@H]([C@@H](C)O)NC(=O)[C@@H]2C[C@@H](c3ccccc3)CN2C(=O)[C@@H]2CCCN2C1=O
# notes: also called 3BP-3353
# Target: T2, human fibroblast activation protein (FAP) on WI-38 fibroblasts (human, UniProt Q12884 1-760)
# T2 construct: FAP-expressing human WI-38 fibroblasts (ECACC)
# Experiment: competitive FACS, WI-38 cells, Cy5-labeled peptide as competitor; B = pIC50 7.1 to 8.0
row,pIC50 [pic50],Binder
1,7.1 to 8,"{DOTA}-[Ttds][Nle]CPPTQFCD[Ttds]K(DOTA)-NH2 (linker 3-9 via tMeBn(DOTA-AET), also called 3BP-4392) [DOTA-Ttds-Nle-[Cys(tMeBn(DOTA-AET))-Pro-Pro-Thr-Gln-Phe-Cys]-Asp-Ttds-Lys(DOTA)-NH2]"
2,7.1 to 8,B1
3,7.1 to 8,"Hexanoyl-CPPTQFCD[GABA]R[Ttds″][Ttds″][Ttds″]K(AF488)-NH2 (linker 1-7 via tMeBn(LuDOTA-AET); also: Lu complexed by DOTA, also called 3BP-4373) [Hex-[Cys(tMeBn(LuDOTA-AET))-Pro-Pro-Thr-Gln-Phe-Cys]-Asp-Gab-Arg-Ttds-Ttds-Ttds-Lys(AF488)-NH2]"
4,7.1 to 8,B2
5,7.1 to 8,"N4Ac-E[Ttds″][Nle]CPPTEFC-OH (linker 4-10 via 3MeBn, also called 3BP-4222) [N4Ac-Glu-Ttds-Nle-[Cys-(3MeBn)-Pro-Pro-Thr-Glu-Phe-Cys]-OH]"
6,7.1 to 8,"Hexanoyl-CPPTQFCD-NH2 (linker 1-7 via tMeBn(H-AET), also called 3BP-3981) [Hex-[Cys-(tMeBn(H-AET))-Pro-Pro-Thr-Gln-Phe-Cys]-Asp-NH2]"

# Target: T1, recombinant human PREP (R&D systems, …)
# Experiment: cell-based or functional assay
row,pIC50 (PREP) [pIC50],Binder
1,< 6,B3
2,< 6,"Hexanoyl-CPPTQFCD-NH2 (linker 1-7 via tMeBn(DOTA-AET), also called 3BP-3426) [Hex-[Cys(tMeBn(DOTA-AET))-Pro-Pro-Thr-Gln-Phe-Cys]-Asp-NH2]"
3,< 6,B4

# Target: Recombinant human DPP4 (R&D systems, #9168-SE) (human, UniProt P27487 29-766)
# Experiment: cell-based or functional assay
# Sequence of Recombinant human DPP4 (R&D systems, #9168-SE) (P27487 29-766 limits assumed): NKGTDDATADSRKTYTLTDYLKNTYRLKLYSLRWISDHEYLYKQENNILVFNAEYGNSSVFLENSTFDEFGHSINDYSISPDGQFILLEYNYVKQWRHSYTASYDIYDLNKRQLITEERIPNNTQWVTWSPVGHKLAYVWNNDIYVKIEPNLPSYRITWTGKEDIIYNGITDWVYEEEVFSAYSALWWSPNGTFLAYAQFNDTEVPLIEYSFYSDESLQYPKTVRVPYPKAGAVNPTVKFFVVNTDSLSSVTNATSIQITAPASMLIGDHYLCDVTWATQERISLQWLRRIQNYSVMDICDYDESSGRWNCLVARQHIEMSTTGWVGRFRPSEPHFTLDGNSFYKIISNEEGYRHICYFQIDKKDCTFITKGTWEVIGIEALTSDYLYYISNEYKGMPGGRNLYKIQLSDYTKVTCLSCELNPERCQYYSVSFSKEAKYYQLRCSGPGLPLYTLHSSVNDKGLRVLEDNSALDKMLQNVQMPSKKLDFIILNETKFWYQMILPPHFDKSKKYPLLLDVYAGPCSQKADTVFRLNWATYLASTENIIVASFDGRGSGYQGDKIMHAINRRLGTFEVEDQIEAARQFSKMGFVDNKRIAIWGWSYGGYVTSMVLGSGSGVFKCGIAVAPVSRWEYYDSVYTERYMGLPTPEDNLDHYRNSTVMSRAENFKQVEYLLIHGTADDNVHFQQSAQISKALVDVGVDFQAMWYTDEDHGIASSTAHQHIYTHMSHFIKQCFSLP
row,pIC50 (DPP4) [pIC50],Binder
1,< 6,B3
2,< 6,"Hexanoyl-CPPTQFCD-NH2 (linker 1-7 via tMeBn(DOTA-AET), also called 3BP-3426) [Hex-[Cys(tMeBn(DOTA-AET))-Pro-Pro-Thr-Gln-Phe-Cys]-Asp-NH2]"
3,< 6,B4

# Target: Recombinant human FAP (R&D systems, #3715-SE) (human, UniProt Q12884 26-760)
# Experiment: cell-based or functional assay
row,pIC50 Category (Activity),Binder
1,6.1 pIC50 and 7 pIC50,B5
2,6.1 pIC50 and 7 pIC50,B6
3,6.1 pIC50 and 7 pIC50,B7

# Target: T3, Recombinant human FAP (R&D systems, #3715-SE) (human, UniProt Q12884 26-760)
# Experiment: cell-based or functional assay
row,pIC50 Category (Activity) [pIC50],Binder
1,> 8,"Hexanoyl-CPPTQFCD[GABA]R[Ttds″][Ttds″][Ttds″]K(AF488)-NH2 (linker 1-7 via tMeBn(LuDOTA-AET); also: Lu complexed by DOTA, also called 3BP-4373) [Hex-[Cys(tMeBn(LuDOTA-AET))-Pro-Pro-Thr-Gln-Phe-Cys]-Asp-Gab-Arg-Ttds-Ttds-Ttds-Lys(AF488)-NH2]"
2,> 8,B2
3,> 8,"Hexanoyl-CPPTQFCD-NH2 (linker 1-7 via tMeBn(H-AET), also called 3BP-3981) [Hex-[Cys-(tMeBn(H-AET))-Pro-Pro-Thr-Gln-Phe-Cys]-Asp-NH2]"

# Target: T4, fibroblast activation protein (FAP) on FAP-expressing human WI-38 fibroblasts (human, UniProt Q12884 1-760)
# T4 construct: also called human FAP
# Experiment: competitive FACS, WI-38 cells, vs Cy5 tracer m3; D = pIC50 <=6.0
row,pIC50 Category (FACS) [pIC50],Binder
1,≤ 6,B5
2,≤ 6,B6
3,≤ 6,B7

# Target: T3, Recombinant human FAP (R&D systems, …)
# Experiment: SPR (Biacore T200), FAP captured on anti-FAP antibody, single cycle kinetics
row,pKD Category [pKD],Binder
1,> 8,B3
2,> 8,"Hexanoyl-CPPTQFCD-NH2 (linker 1-7 via tMeBn(DOTA-AET), also called 3BP-3426) [Hex-[Cys(tMeBn(DOTA-AET))-Pro-Pro-Thr-Gln-Phe-Cys]-Asp-NH2]"
3,> 8,B4
4,> 8,"N4Ac-E[Ttds″][Nle]CPPTEFC-OH (linker 4-10 via 3MeBn, also called 3BP-4222) [N4Ac-Glu-Ttds-Nle-[Cys-(3MeBn)-Pro-Pro-Thr-Glu-Phe-Cys]-OH]"
